{
  "source": "paper PMC6326742",
  "about": "(Cell, 2018)",
  "target": "the molecule itself",
  "assay": "SEC-MALS",
  "data": [
    {"protein": "Ptch1-B (stabilized mouse PTCH1 variant, SBP-tagged, purified) (receptor, UniProt Q61115 1-1291, looked up) MASAGNAAGALGRQAGGGRRRRTGGPHRAAPDRDYLHRPSYCDAAFALEQISKGKATGRKAPLWLRAKFQRLLFKLGCYIQKNCGKFLVVGLLIFGAFAVGLKAANLETNVEELWVEVGGRVSRELNYTRQKIGEEAMFNPQLMIQTPKEEGANVLTTEALLQHLDSALQASRVHVYMYNRQWKLEHLCYKSGELITETGYMDQIIEYLYPCLIITPLDCFWEGAKLQSGTAYLLGKPPLRWTNFDPLEFLEELKKINYQVDSWEEMLNKAEVGHGYMDRPCLNPADPDCPATAPNKNSTKPLDVALVLNGGCQGLSRKYMHWQEELIVGGTVKNATGKLVSAHALQTMFQLMTPKQMYEHFRGYDYVSHINWNEDRAAAILEAWQRTYVEVVHQSVAPNSTQKVLPFTTTTLDDILKSFSDVSVIRVASGYLLMLAYACLTMLRWDCSKSQGAVGLAGVLLVALSVAAGLGLCSLIGISFNAATTQVLPFLALGVGVDDVFLLAHAFSETGQNKRIPFEDRTGECLKRTGASVALTSISNVTAFFMAALIPIPALRAFSLQAAVVVVFNFAMVLLIFPAILSMDLYRREDRRLDIFCCFTSPCVSRVIQVEPQAYTEPMQSTVQLRTEYDPHTHVYYTTAEPRSEISVQPVTVTQDNLSCQSPESTSSTRDLLSQFSDSSLHCLEPPCTKWTLSSFAEKHYAPFLLKPKAKVVVILLFLGLLGVSLYGTTRVRDGLDLTDIVPRETREYDFIAAQFKYFSFYNMYIVTQKADYPNIQHLLYDLHKSFSNVKYVMLEENKQLPQMWLHYFRDWLQGLQDAFDSDWETGRIMPNNYKNGSDDGVLAYKLLVQTGSRDKPIDISQLTKQRLVDADGIINPSAFYIYLTAWVSNDPVAYAASQANIRPHRPEWVHDKADYMPETRLRIPAAEPIEYAQFPFYLNGLRDTSDFVEAIEKVRVICNNYTSLGLSSYPNGYPFLFWEQYISLRHWLLLSISVVLACTFLVCAVFLLNPWTAGIIVMVLALMTVELFGMMGLIGIKLSAVPVVILIASVGIGVEFTVHVALAFLTAIGDKNHRAMLALEHMFAPVLDGAVSTLLGVLMLAGSEFDFIVRYFFAVLAILTVLGVLNGLVLLPVLLSFFGPCPEVSPANGLNRLPTPSPEPPPSVVRFAVPPGHTNNGSDSSDSEYSSQTTVSGISEELRQYEAQQGAGGPAHQVIVEATENPVFARSTVVHPDSRHQPPLTPRQQPHLDSGSLSPGRQGQQPRRD", "values": [
      {"measurement": "stoichiometry N", "result": 2}
    ]}
  ]
}
